# Experimental data from the supplement of paper PMC10126150.
# ± gives the standard deviation of the averaged measurements.
# Test system: ATP
# Test: switch fluorescence ratio, 500 uM ATP over buffer (Cy3 cluster intensity, sum of 5 cycles each) (fold (ratio)); higher = stronger signal-on switching upon ATP binding; sequences stand for … in TCGTCGGCAGCGTCAGATGTGTATAAGAGACAGTTTTTTTTTTTTTTTTTTTTTTTTT…TC
# Conditions: aptamer strand: ATP DNA aptamer (quencher-CACCTGGGGGAGTATTGCGGAGGAAGG + anchor), 100 nM annealed; ATP concentration: 500 uM
# In short: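 Imaging in selection buffer was followed by imaging after 15 min with 500 uM ATP at 22 °C, for Cy3-labelled switching-strand clusters annealed to 100 nM quencher-labelled ATP aptamer on a modified Illumina MiSeq flow-cell. Five of these buffer/ATP cycles ran, separated by NaOH stripping and re-annealing. The fluorescence ratio per cluster is summed target-cycle over summed buffer-cycle Cy3 intensity, averaged per switch-domain sequence; clusters outside 100-1000 RFU were removed.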
# 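Also: ATP exposure 15 min at 22 °C before imaging.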
row,Sequence,switch fluorescence ratio
1,AACTTTGTGC,1 ± 0.055
2,AACTTTTACG,1.074 ± 0.0069
3,AACTTTTCAT,1.02 ± 0.02
4,AACTTTTGCT,1.03 ± 0.066
5,AACTTTTTAA,1.01 ± 0.012
6,AAGAAAATAC,1 ± 0.024
7,AAGAAAGGGG,0.979 ± 0.034
8,AAGAAAGGTC,0.994 ± 0.12
9,AAGAAATTTG,0.992 ± 0.015
10,AAGAACTATG,1.02 ± 0.034
11,AAGAACTTGC,0.982 ± 0.053
12,AAGAAGGAGG,1.01 ± 0.029
13,AAGAAGTGTA,1.006 ± 0.0083
14,AAGAATATCA,1.02 ± 0.016
15,AAGACGATGT,0.995 ± 0.013
16,AAGACGGGGT,1.01 ± 0.049
17,AAGACTGTTT,0.954 ± 0.026
18,AAGACTTCTT,0.98673 ± 0.00038
19,AAGACTTGTG,0.981 ± 0.019
20,AAGAGACAGG,1.05 ± 0.042
21,AAGAGAGGCA,1.02 ± 0.023
22,AAGAGATACG,1.04 ± 0.059
23,AAGAGATTTG,0.981 ± 0.018
24,AAGAGCAGGG,0.975 ± 0.011
25,AAGAGCCATC,0.9527 ± 0.009

row,Sequence,switch fluorescence ratio
1,AAGAGCCGCG,1.03 ± 0.045
2,AAGAGCGAAG,1.01 ± 0.014
3,AAGAGCGAGG,0.945 ± 0.036
4,AAGAGCTAGT,1 ± 0.013
5,AAGAGGAGAG,1.036 ± 0.0073
6,AAGAGGGCCT,1.01 ± 0.037
7,AAGAGGGCTT,0.994 ± 0.016
8,AAGAGGGGTG,1.01 ± 0.025
9,AAGAGGGTAT,0.9835 ± 0.0065
10,AAGAGGTGAA,0.987 ± 0.013
11,AAGAGGTGGA,1.028 ± 0.0098
12,AAGAGTGTGG,1.02 ± 0.058
13,AAGAGTTCCT,1.03 ± 0.032
14,AAGAGTTCGT,0.955 ± 0.023
15,AAGATAGAAC,0.9783 ± 0.0068
16,AAGATCACTT,0.979 ± 0.041
17,AAGATCTCGC,0.994 ± 0.025
18,AAGATCTTAT,1.01 ± 0.031
19,AAGATGCAGC,1.05 ± 0.12
20,AAGATGGAGG,0.973 ± 0.037
21,AAGATGGGGA,1.01 ± 0.016
22,AAGATTCGCG,0.9914 ± 0.0014
23,AAGATTGAGC,0.937 ± 0.022
24,AAGATTTAAG,1.02 ± 0.014
25,AAGATTTCGG,1.015 ± 0.0084

row,Sequence,switch fluorescence ratio
1,AAGATTTGAG,0.992 ± 0.01
2,AAGCAGGGGA,1.05 ± 0.032
3,AAGCATGGGA,1.01 ± 0.022
4,AAGCCCGCAC,1.879 ± 0.0067
5,AAGCCGGCTA,1.03 ± 0.023
6,AAGCCGTAGG,0.991 ± 0.044
7,AAGCCGTGTC,1.01 ± 0.031
8,AAGCGGCTCG,0.996 ± 0.03
9,AAGCGGGG,1.006 ± 0.002
10,AAGCGGGGAA,1.02 ± 0.03
11,AAGCGGGGAG,1.04 ± 0.04
12,AAGCGGGGGT,1.02 ± 0.026
13,AAGCGTCTCA,0.997 ± 0.011
14,AAGCGTCTGG,1.02 ± 0.024
15,AAGCGTTTTT,1.018 ± 0.0045
16,AAGCTAAAAT,0.996 ± 0.053
17,AAGCTAATTT,1.01 ± 0.011
18,AAGCTCGTGC,0.973 ± 0.089
19,AAGCTTATAT,0.9999 ± 0.0089
20,AAGCTTATGC,1.04 ± 0.085
21,AAGCTTGTGT,0.997 ± 0.069
22,AAGCTTTCGT,1.03 ± 0.014
23,AAGGAAGCCG,1.06 ± 0.044
24,AAGGACACGG,1.042 ± 0.01
25,AAGGACCCCT,1.06 ± 0.026

row,Sequence,switch fluorescence ratio
1,AAGGACGCCA,1.05 ± 0.028
2,AAGGACGGGG,0.974 ± 0.011
3,AAGGACGGTG,1.0045 ± 0.00079
4,AAGGAGAAGA,0.993 ± 0.01
5,AAGGAGCTTG,0.9735 ± 0.0038
6,AAGGAGGGGT,0.9968 ± 0.0081
7,AAGGAGGGTG,1.02 ± 0.019
8,AAGGAGTAGC,1.04 ± 0.095
9,AAGGATCGTT,1 ± 0.018
10,AAGGATTAAC,0.985 ± 0.032
11,AAGGCACAAG,1 ± 0.021
12,AAGGCACCGT,1.03 ± 0.038
13,AAGGCAGGGC,0.972 ± 0.04
14,AAGGCCTATA,0.998 ± 0.0088
15,AAGGCGACGT,0.994 ± 0.015
16,AAGGCGGGTA,1 ± 0.021
17,AAGGCGGGTG,1.01 ± 0.015
18,AAGGCGTTTT,1.01 ± 0.018
19,AAGGCTAATT,0.979 ± 0.033
20,AAGGCTGGTG,1.02 ± 0.015
21,AAGGCTTGGG,0.992 ± 0.048
22,AAGGGAAACA,1.04 ± 0.072
23,AAGGGACAGT,1.03 ± 0.016
24,AAGGGACGGC,0.9648 ± 0.0078
25,AAGGGACTGC,0.97 ± 0.018
